For test [1], the target named is T1, human calcitonin receptor (human, UniProt P30988 25-474).
T1 construct: whole, on cells; Assay used cell membranes, not intact cells; also called hCTR; hCT
T1 sequence (looked up): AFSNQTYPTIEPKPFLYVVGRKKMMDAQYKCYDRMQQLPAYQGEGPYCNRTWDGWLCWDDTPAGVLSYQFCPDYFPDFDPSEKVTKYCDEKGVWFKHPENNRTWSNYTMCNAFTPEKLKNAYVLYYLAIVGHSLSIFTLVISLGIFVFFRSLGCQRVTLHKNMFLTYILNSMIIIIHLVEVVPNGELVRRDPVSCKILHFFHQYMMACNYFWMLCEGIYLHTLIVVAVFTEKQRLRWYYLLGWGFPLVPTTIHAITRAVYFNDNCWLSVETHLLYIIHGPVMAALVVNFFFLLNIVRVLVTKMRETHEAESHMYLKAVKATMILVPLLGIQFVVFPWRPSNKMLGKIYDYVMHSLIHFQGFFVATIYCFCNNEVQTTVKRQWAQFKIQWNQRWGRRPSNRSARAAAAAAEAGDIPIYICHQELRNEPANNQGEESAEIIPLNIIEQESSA
The experiment in a line: ratio IC50 hCTR / IC50 hAmylin-R (reference: human amylin receptor), SPA competition assays. In a few lines:
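Scintillation proximity competition binding on cell membranes at 35 ng/μL with SPA beads, in 50 mM Hepes pH 7.4, 1 mM CaCl2, 5 mM MgCl₂, 0.1% OA, 0.02% Tween20. Incubated 120 min at 25° C with shaking. IC₅₀ from one-site competition fit.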

In test [2] the target is T1, human calcitonin receptor. The test is described as follows: SPA competition with 125I-calcitonin on membranes of BHK cells with human calcitonin receptor (Assay VII). A digest of the protocol:
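BHK hCTR membranes 35 ng/μL + SPA beads 0.05 mg/well; buffer 50 mM Hepes pH 7.4, 1 mM CaCl2, 5 mM MgCl₂, 0.1% OA, 0.02% Tween20. 120 min, 25° C., shaking. Scintillation count; IC50 by one-site binding competition.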

For test [3], the target named is T2, human amylin receptor (amylin 3(a) receptor: human calcitonin receptor with RAMP-3) (human, UniProt P30988 25-474; O60896 24-148).
T2 construct: whole, on cells; Assay used cell membranes of the Amylin 3(a)/CRE-luc BHK cells, not intact cells; also called hAmylin-R; hAmylinR
T2 sequence (looked up) 1: T1 sequence (looked up)
T2 sequence (looked up) 2: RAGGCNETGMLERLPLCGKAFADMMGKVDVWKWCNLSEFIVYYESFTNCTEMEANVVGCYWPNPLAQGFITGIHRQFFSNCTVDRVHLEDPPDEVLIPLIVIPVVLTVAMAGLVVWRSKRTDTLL
The experiment in a line: SPA competition with 125I-rat amylin on membranes of BHK cells with human calcitonin receptor and RAMP-3 (Assay V). A digest of the protocol: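 Membranes from BHK Amylin 3(a)/CRE-luc cells (35 ng/μL final) were mixed with SPA beads and test compounds in 50 mM Hepes pH 7.4 with 1 mM CaCl2, 5 mM MgCl₂, 0.1% OA and 0.02% Tween20. Incubation ran 120 min at 25° C with shaking; IC₅₀ came from one-site competition fitting.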

From US20140087995A1 (published 2014) come the findings set out here.

Numbered stars: 1 amine (or outer) side, 2 acyl side, 3 side chain; on linkers, the order of the positions; unused ones are H or OH. Bridge positions count the residues as written; N and C are the ends. Side chains are listed from the residue outwards. Ends that are not written are not given here. * marks the point of attachment. C20 diacid = O=C(O)CCCCCCCCCCCCCCCCCCC(=O)*; γGlu = O=C(O)[C@H](CCC(=O)[*:2])N[*:1]

As usually defined, the IC50 is the concentration that gives 50% inhibition.

B1: N^ε1-[(4S)-4-carboxy-4-(19-carboxynonadecanoylamino)butanoyl]-[Glu14,Arg17,Pro21,Pro27,Pro34,Glu35]-h-amylin (peptide)
peptide: K([γGlu-C20 diacid])CNTATCATQRLAEFLRHSSPNFGAIPSSTNVGPETY-NH2
modifications: disulfide 2-7; N-terminus assumed
SMILES: CC[C@H](C)[C@H](NC(=O)[C@H](C)NC(=O)CNC(=O)[C@H](Cc1ccccc1)NC(=O)[C@H](CC(N)=O)NC(=O)[C@@H]1CCCN1C(=O)[C@H](CO)NC(=O)[C@H](CO)NC(=O)[C@H](Cc1c[nH]cn1)NC(=O)[C@H](CCCNC(=N)N)NC(=O)[C@H](CC(C)C)NC(=O)[C@H](Cc1ccccc1)NC(=O)[C@H](CCC(=O)O)NC(=O)[C@H](C)NC(=O)[C@H](CC(C)C)NC(=O)[C@H](CCCNC(=N)N)NC(=O)[C@H](CCC(N)=O)NC(=O)[C@@H](NC(=O)[C@H](C)NC(=O)[C@@H]1CSSC[C@H](NC(=O)[C@@H](N)CCCCNC(=O)CC[C@H](NC(=O)CCCCCCCCCCCCCCCCCCC(=O)O)C(=O)O)C(=O)N[C@@H](CC(N)=O)C(=O)N[C@@H]([C@@H](C)O)C(=O)N[C@@H](C)C(=O)N[C@@H]([C@@H](C)O)C(=O)N1)[C@@H](C)O)C(=O)N1CCC[C@H]1C(=O)N[C@@H](CO)C(=O)N[C@@H](CO)C(=O)N[C@H](C(=O)N[C@@H](CC(N)=O)C(=O)N[C@H](C(=O)NCC(=O)N1CCC[C@H]1C(=O)N[C@@H](CCC(=O)O)C(=O)N[C@H](C(=O)N[C@@H](Cc1ccc(O)cc1)C(N)=O)[C@@H](C)O)C(C)C)[C@@H](C)O
Consider B1, for which, in test [1], the “Ratio hCT/hAmylin binding” value was 13.3. Further, the IC50 in test [2] amounted to 1.86 nM; in test [3], 0.14 nM.

B2: N^ε1-[(4S)-4-carboxy-4-(19-carboxynonadecanoylamino)butanoyl]-[His14,Arg17,Pro21,Pro27,His34]-h-amylin (peptide)
peptide: K([γGlu-C20 diacid])CNTATCATQRLAHFLRHSSPNFGAIPSSTNVGHNTY-NH2
modifications: disulfide 2-7; N-terminus assumed
SMILES: CC[C@H](C)[C@H](NC(=O)[C@H](C)NC(=O)CNC(=O)[C@H](Cc1ccccc1)NC(=O)[C@H](CC(N)=O)NC(=O)[C@@H]1CCCN1C(=O)[C@H](CO)NC(=O)[C@H](CO)NC(=O)[C@H](Cc1c[nH]cn1)NC(=O)[C@H](CCCNC(=N)N)NC(=O)[C@H](CC(C)C)NC(=O)[C@H](Cc1ccccc1)NC(=O)[C@H](Cc1c[nH]cn1)NC(=O)[C@H](C)NC(=O)[C@H](CC(C)C)NC(=O)[C@H](CCCNC(=N)N)NC(=O)[C@H](CCC(N)=O)NC(=O)[C@@H](NC(=O)[C@H](C)NC(=O)[C@@H]1CSSC[C@H](NC(=O)[C@@H](N)CCCCNC(=O)CC[C@H](NC(=O)CCCCCCCCCCCCCCCCCCC(=O)O)C(=O)O)C(=O)N[C@@H](CC(N)=O)C(=O)N[C@@H]([C@@H](C)O)C(=O)N[C@@H](C)C(=O)N[C@@H]([C@@H](C)O)C(=O)N1)[C@@H](C)O)C(=O)N1CCC[C@H]1C(=O)N[C@@H](CO)C(=O)N[C@@H](CO)C(=O)N[C@H](C(=O)N[C@@H](CC(N)=O)C(=O)N[C@H](C(=O)NCC(=O)N[C@@H](Cc1c[nH]cn1)C(=O)N[C@@H](CC(N)=O)C(=O)N[C@H](C(=O)N[C@@H](Cc1ccc(O)cc1)C(N)=O)[C@@H](C)O)C(C)C)[C@@H](C)O
notes: also called compound 81
For the molecule B2, the “Ratio hCT/hAmylin binding” value in test [1] was found to be 87.2. The IC50 in test [2] came to 23.6 nM; in test [3] it was 0.271 nM.

B3: N^ε1-[(4S)-4-carboxy-4-(19-carboxynonadecanoylamino)butanoyl]-[His14,Arg17,Pro21,Pro27,Pro31,Pro34]-h-amylin (peptide)
peptide: K([γGlu-C20 diacid])CNTATCATQRLAHFLRHSSPNFGAIPSSTPVGPNTY-NH2
modifications: disulfide 2-7; N-terminus assumed
SMILES: CC[C@H](C)[C@H](NC(=O)[C@H](C)NC(=O)CNC(=O)[C@H](Cc1ccccc1)NC(=O)[C@H](CC(N)=O)NC(=O)[C@@H]1CCCN1C(=O)[C@H](CO)NC(=O)[C@H](CO)NC(=O)[C@H](Cc1c[nH]cn1)NC(=O)[C@H](CCCNC(=N)N)NC(=O)[C@H](CC(C)C)NC(=O)[C@H](Cc1ccccc1)NC(=O)[C@H](Cc1c[nH]cn1)NC(=O)[C@H](C)NC(=O)[C@H](CC(C)C)NC(=O)[C@H](CCCNC(=N)N)NC(=O)[C@H](CCC(N)=O)NC(=O)[C@@H](NC(=O)[C@H](C)NC(=O)[C@@H]1CSSC[C@H](NC(=O)[C@@H](N)CCCCNC(=O)CC[C@H](NC(=O)CCCCCCCCCCCCCCCCCCC(=O)O)C(=O)O)C(=O)N[C@@H](CC(N)=O)C(=O)N[C@@H]([C@@H](C)O)C(=O)N[C@@H](C)C(=O)N[C@@H]([C@@H](C)O)C(=O)N1)[C@@H](C)O)C(=O)N1CCC[C@H]1C(=O)N[C@@H](CO)C(=O)N[C@@H](CO)C(=O)N[C@H](C(=O)N1CCC[C@H]1C(=O)N[C@H](C(=O)NCC(=O)N1CCC[C@H]1C(=O)N[C@@H](CC(N)=O)C(=O)N[C@H](C(=O)N[C@@H](Cc1ccc(O)cc1)C(N)=O)[C@@H](C)O)C(C)C)[C@@H](C)O
Turning to B3, the “Ratio hCT/hAmylin binding” value in test [1] is 24.8. The half-inhibitory concentration (IC50) is 2.04 nM in test [2] and 0.082 nM in test [3].

B4: N^ε1-[(4S)-4-carboxy-4-(19-carboxynonadecanoylamino)butanoyl]-[His14,Arg17,Pro21,Pro27,Arg34]-h-amylin (peptide)
peptide: K([γGlu-C20 diacid])CNTATCATQRLAHFLRHSSPNFGAIPSSTNVGRNTY-NH2
modifications: disulfide 2-7; N-terminus assumed
SMILES: CC[C@H](C)[C@H](NC(=O)[C@H](C)NC(=O)CNC(=O)[C@H](Cc1ccccc1)NC(=O)[C@H](CC(N)=O)NC(=O)[C@@H]1CCCN1C(=O)[C@H](CO)NC(=O)[C@H](CO)NC(=O)[C@H](Cc1c[nH]cn1)NC(=O)[C@H](CCCNC(=N)N)NC(=O)[C@H](CC(C)C)NC(=O)[C@H](Cc1ccccc1)NC(=O)[C@H](Cc1c[nH]cn1)NC(=O)[C@H](C)NC(=O)[C@H](CC(C)C)NC(=O)[C@H](CCCNC(=N)N)NC(=O)[C@H](CCC(N)=O)NC(=O)[C@@H](NC(=O)[C@H](C)NC(=O)[C@@H]1CSSC[C@H](NC(=O)[C@@H](N)CCCCNC(=O)CC[C@H](NC(=O)CCCCCCCCCCCCCCCCCCC(=O)O)C(=O)O)C(=O)N[C@@H](CC(N)=O)C(=O)N[C@@H]([C@@H](C)O)C(=O)N[C@@H](C)C(=O)N[C@@H]([C@@H](C)O)C(=O)N1)[C@@H](C)O)C(=O)N1CCC[C@H]1C(=O)N[C@@H](CO)C(=O)N[C@@H](CO)C(=O)N[C@H](C(=O)N[C@@H](CC(N)=O)C(=O)N[C@H](C(=O)NCC(=O)N[C@@H](CCCNC(=N)N)C(=O)N[C@@H](CC(N)=O)C(=O)N[C@H](C(=O)N[C@@H](Cc1ccc(O)cc1)C(N)=O)[C@@H](C)O)C(C)C)[C@@H](C)O
notes: also called compound 85
With B4, in test [1], the “Ratio hCT/hAmylin binding” value worked out at 91.8. Further, the IC50 in test [2] is 80.4 nM; in test [3], 0.876 nM.

B5: N^ε1-[(4S)-4-carboxy-4-(19-carboxynonadecanoylamino)butanoyl]-[Glu14,Arg17,Pro21,Pro27,Pro34,His35]-h-amylin (peptide)
peptide: K([γGlu-C20 diacid])CNTATCATQRLAEFLRHSSPNFGAIPSSTNVGPHTY-NH2
modifications: disulfide 2-7
Regarding B5, the “Ratio hCT/hAmylin binding” value in test [1] stood at 21.2. Besides, the IC50 in test [2] was determined as 3.8 nM; in test [3], 0.179 nM.

B6: N^ε1-[(4S)-4-carboxy-4-[[(4S)-4-carboxy-4-(19-carboxynonadecanoylamino)butanoyl]amino]butanoyl]-[Arg17,Pro21,Pro27,His34]-h-amylin (peptide)
peptide: K([γGlu-γGlu-C20 diacid])CNTATCATQRLANFLRHSSPNFGAIPSSTNVGHNTY-NH2
modifications: disulfide 2-7; N-terminus assumed
SMILES: CC[C@H](C)[C@H](NC(=O)[C@H](C)NC(=O)CNC(=O)[C@H](Cc1ccccc1)NC(=O)[C@H](CC(N)=O)NC(=O)[C@@H]1CCCN1C(=O)[C@H](CO)NC(=O)[C@H](CO)NC(=O)[C@H](Cc1c[nH]cn1)NC(=O)[C@H](CCCNC(=N)N)NC(=O)[C@H](CC(C)C)NC(=O)[C@H](Cc1ccccc1)NC(=O)[C@H](CC(N)=O)NC(=O)[C@H](C)NC(=O)[C@H](CC(C)C)NC(=O)[C@H](CCCNC(=N)N)NC(=O)[C@H](CCC(N)=O)NC(=O)[C@@H](NC(=O)[C@H](C)NC(=O)[C@@H]1CSSC[C@H](NC(=O)[C@@H](N)CCCCNC(=O)CC[C@H](NC(=O)CC[C@H](NC(=O)CCCCCCCCCCCCCCCCCCC(=O)O)C(=O)O)C(=O)O)C(=O)N[C@@H](CC(N)=O)C(=O)N[C@@H]([C@@H](C)O)C(=O)N[C@@H](C)C(=O)N[C@@H]([C@@H](C)O)C(=O)N1)[C@@H](C)O)C(=O)N1CCC[C@H]1C(=O)N[C@@H](CO)C(=O)N[C@@H](CO)C(=O)N[C@H](C(=O)N[C@@H](CC(N)=O)C(=O)N[C@H](C(=O)NCC(=O)N[C@@H](Cc1c[nH]cn1)C(=O)N[C@@H](CC(N)=O)C(=O)N[C@H](C(=O)N[C@@H](Cc1ccc(O)cc1)C(N)=O)[C@@H](C)O)C(C)C)[C@@H](C)O
notes: also called compound 86
In the case of B6, in test [1], the “Ratio hCT/hAmylin binding” value was 159. For the same molecule, the IC50 in test [2] is 133 nM; in test [3] it was 0.833 nM.
